Measured values: the DeepSol protein solubility set

assay: soluble on expression in E. coli; label from the status in PepcDB or PDB records

| Sequence | soluble on expression in E. coli |
| --- | --- |
| LTLPGIANLRRLRVDDVAIPKVEIVAVPVDIGKEDLVAVFREHGFSRLPVYRETLDQPLGLVLLKDLALQHGFNGNGSFDLKTLLRPLLYAPPSMPIGVLLQKMQRERVHMALVIDEYGGVDGLVTIEDLIETVIGEIEDEHDEVEGPLWTLEKPGVYMAQSRTPLDEFEAEIGLRLRREEEDEEIDTLGGLV | not soluble |
| SSALIQTPSSLLVQTNHTAKMSCEVKSISKLTSIYWLRERQDPKDKYFEFLASWSSSKGVLYGESVDKKRNIILESSDSRRPFLSIMNVKPEDSDFYFCATVGSPKMVFGTGTKLTVVDVLPTTAPTKKTTLKMKKKKQCPFPHPETQKG | soluble |
| SSTQYSILFKQEHAHEDAIWTAAWGRSEKDGSETIVTGSLDDLVKVWKWSDEKLELQWTLEGHQLGVVSVNISQNGAIAASSSLDAHIRLWDLETGKQIKSMDAGPVDAWTVAFSPDSKYIATGSHLGKVNIFGVESGKKEHSLDTRGKFILSIAYSPDGKYLASGAIDGIINIFDIATGKLLHTLEGHAMPIRSLTFSPDSQLLVTASDDGYIKIYDVQHANLAGTLSGHGSWVLSVAFSPDDTHFVSSSSDKSIKVWDTSSRSCVNTFFDHQDQVWSVKYNPTGSKIVSAGDDRAIHIYDCPM | soluble |
| AEMKNLKIEVVRYNPEVDTAPHSAFYEVPYDATTSLLDALGYIKDNLAPDLSYRWSCRMAICGSCGMMVNNVPKLACKTFLRDYTDGMKVEALANFPIERDLVVDMTHFIESLEAIKPYIIGNSRTADQGTNIQTPAQMAKYHQFSGCINCGLCYAACPQFGLNPEFIGPAAITLAHRYNEDSRDHGKKERMAQLNSQNGVWSCTFVGYCSEVCPKHVDPAAAIQQGKVESSKDFLIATLKPR | soluble |
| MSLDDGTGLFTIGQLARRTGLSVRTIRYWSDEGALPPVTRSSGGYRLYDAGSVARLELIRTLRELGLGLDDVREVLAGETTVAEVAATHVTALDAQIRALKVTRAVLSTVARRGSTAEEMTLMNKLARLSAAERRRILEEFADEMFRGLDTADPVIRERMRNTAVDLPDEPTPEQVDAWVELVELLQDPEFRAQMRAAAEFNAADRGHDSPAGASLWFVRRLVQLAADARQRGIAPEAPEAEEVLRELLGEADGAADRAAVLERLEATSNDRVARYRELLAVVKGGGPLPAHREEFGWVVAALRAREGHHHHHH | soluble |
| MVLQHQFDGLLEVMPENPRKKLRFTSRHIAAVNRYLDDKYFDPKEEKWSNLHPKYRIVLENLIRQTGPRLSPQVTLFLPNTFNGAFAPRQPFGLPSYFYHTCKKAESITQATHAMNQEYTVKMKNLNDQIDAYIYDTHLDILKVTEKRGDYLKNIPHDFGEHPDNPRNGQDNPKIELEHREILWNGLKVVLENGRFYETSTTETNVVEIFLNDELLNDKLYILKAEFFAAFYASEEATQIEVMVLFDNYFMAGGTIQYGEKLVCHLQEIPGTYGTTSFSCSSDFKSMVRKCGLPPIPRIGSPWNSDLMESIAELQQAIIRLENRVYDKDYIGKYTHENGGFIEAYCASLKNLSNTLYLLEEGTIELPAHSKNWTPREKLAYLSNFAPEKEMTSCEIGKPCASFKMIIGLAKSLRKNPYNFSFSGELLAEFSFQIRMAMLSMYLVLERNLPDAPHDNSQFVMTTLSHFRRLYIDNVKKIYQIFPHFPVEMRPVVLDVMCQRATPANYQEILEIYSYEPDMVTKMVQKYPYILLFTPHVTRPPIKLIRDFSEYMEKEMMSSEQAQMSRVDVIVLEENEPDGQESGVDYILARSNKRARVDFEKLDLLLESIMPEEAPARDYRKNTSEGHLAEIFGPTNNEEAEEEPSLPSCSYSTPKRVNRAKPALDSPSGNLRTANKDQVDLLDNVMQRSEKRQWKM | not soluble |
| MKTCYYELLGVETHASDLELKKAYRKKALQYHPDKNPDNVEEATQKFAVIRAAYEVLSDPQERAWYDSHKEQILNDTPPSTDDYYDYEVDATVTGVTTDELLLFFNSALYTKIDNSAAGIYQIAGKIFAKLAKDEILSGKRLGKFSEYQDDVFEQDINSIGYLKACDNFINKTDKLLYPLFGYSPTDYEYLKHFYKTWSAFNTLKSFSWKDEYMYSKNYDRRTKREVNRRNEKARQQARNEYNKTVKRFVVFIKKLDKRMKEGAKIAEEQRKLKEQQRKNELNNRRKFGNDNNDEEKFHLQSWQTVKEENWDELEKVYDNFGEFENSKNDKEGEVLIYECFICNKTFKSEKQLKNHINTKLHKKNMEEIRKEMEEENITLGLDNLSDLEKFDSADESVKEKEDIDLQALQAELAEIERKLAESSSEDESEDDNLNIEMDIEVEDVSSDENVHVNTKNKKKRKKKKKAKVDTETEESESFDDTKDKRSNELDDLLASLGDKGLQTDDDEDWSTKAKKKKGKQPKKNSKSTKSTPSLSTLPSSMSPTSAIEVCTTCGESFDSRNKLFNHVKIAGHAAVKNVVKRKKVKTKRI | not soluble |
| MGSDKIHHHHHHMKNLQVVEKEFSSLPIIDISALVSGKGNLYSAASQIRQACRESGFFYIIGHGVDENLQQRLEELSRQFFAQDLETKLKIRMALAGIAWRGYFPVGGELTSGKPDLKEGIYFGTELPDEHPLVQAGTPMHGANLFPANMPQFGETVLEYIEAMTKLGHTLMTGIAMSLGLEESYFADRYTSDPLVLFRIFNYPPNLSPSDGNPIWGVGEHTDYGVLTILKQDDSGGLQVKSKSGWVAAPPVPGSFVCNIGDMLDKMTGGFYRSTPHRVQNQSQNHRLSFPFFFDPNFDVEVKPIELDNYSSE | not soluble |
| MGVDKKQKQRKTNPFELKFNKSKHDILGRKKGAQVGAPTASRKRAHEQREQTLGVEYDRKNKISKIVDKRLGEKDGKSEEEKGAMRFTEERVKNYKRASKFNLTDDGDEEEEVLTHKGKALSDIEKYDKSMISDSDDDEEPGNLGSNMVKVAHFGGGEKTAEEHVREKISREDMISNLIAKTKLARHEKQQQKDELELMTESLDSKYQALMGKMKASFRPTGRQPLEKDDYDKLTITLKTEADARATPADRKLSEEEEALKEKERLETLEAAPDADVDIDAGSKADARKVQAKNSRFEVKFDDEGGLIDEDTVEKSRILKKNLDGSDESDDDEDLEDEEEDLDDLLEDEDELEEDSDDEEAQEAQKVVKKAKKSAPEPAETLPFVFEMPKNYKKFCALLEKHSESMDLVLERLVKCHHPSLKEGNKKRLNKLFLLCLRWFDDMSKEELTAESVKEMNLAQETMHALMKFDIQYGVRCVRALIRQHWKGRQDKQKSSPVSFGLISAIRLVSGLFPVADSWHPVVVPALFLATEALCSAKCANLNALAKQIQLANAIVEYVSESKRYVPELVAFARSALLLAVTEKSEKFATNGFPISKPHTEMLCFEEKYTGPALQPISLTTIFNNSPSDPSLKLHVLRALLSLIQHLRVIYSNQNETYSIVFKPFLRILESIQAKNLPAEVQEELETLCASMKAEIGAKCRLVHLSLVKTEKSMLKMLEPRFEWDFDPERPHHGPKDEKKKLTKNLRNERRGAIKELRKDTAFLARKQLSSVKTKDRARIAATKRVMGGLMQQQGEWNKEKRTADVEKKKDKK | soluble |
| MGSDKIHHHHHHMGNYLVLQSDFGLSDGAVSAMYGVAYTVSDDIRVENLTHDIPPYDIWVASYRLYQTVKYWPKGTVFVSVVDPGVGSDRRSIACLTYSGHYIITPDNGSLSHIKHYEGIKKVIEIDEVKSRLPHSEESHTFHGRDVYAYNGARLAANKIAFERLGQAINVDSIEALEIREATKNEDSVTGSIDILDIRFGSLWTNIPLAFLKSLEIVHGNNLVVTIYHQDKKVYQNIIKFARSFADVNVGEPLVYVNSLVNIGVAVNQDSFSDLYHIGTGNDWTIHLSKAPSI | not soluble |
| MKAHHILKVTKQYNPTEDLEFNPDLDGELVAGADNLPSVEIQVEKIADRQRQITARVQIPQPVEQVWQVLTNYEALADFIPNLAKSSLLEHPNGGIRLEQVGSQRLLNFKFCARVVLDLEEYFPKEINFQMVEGDFKGFSGNWCLQPYALGNVIGTDLCYTIQVWPKLTMPITIIERRLSQDLRSNLLAIYQRVECLANQSLLEHHHHHH | soluble |
| KVQSTFAKYSRVRSMTGMTGAEAAKRLLNSQGIYDVQVRKVAGNLTDHYDPRNKTLNLSESVYDSPSVAAIGVAAHECGHAIQDNTEYAPLKIRGAIVPVVNIGTQLSWPM | not soluble |
